According to article PMC5577056 (Scientific Reports, 2017):

Tests used:
Conditions in all cases: both partners purified
lysozyme [1] = target: T1, lysozyme (Gallus gallus (hen egg white), by PDB …, UniProt P00698); assay: ITC; antibody (about 30 uM) titrated into lysozyme (about 2 uM), 25 injections of 10 ul; PBS (20 mM, pH 7.4), 143 mM NaCl; 293 K (20 °C)
T1 construct: lysozyme, the antigen of the anti-lysozyme antibody HyHEL-10; also called antigen

lysozyme [2] = target: T1, lysozyme; assay: ITC; antibody (about 30 uM) titrated into lysozyme (about 2 uM), 25 injections of 10 ul; PBS (20 mM, pH 7.4), 143 mM NaCl; 298 K (25 °C)
lysozyme [3] = target: T1, lysozyme; assay: ITC; antibody (about 30 uM) titrated into lysozyme (about 2 uM), 25 injections of 10 ul; PBS (20 mM, pH 7.4), 143 mM NaCl; 303 K (30 °C)
lysozyme [4] = target: T1, lysozyme; assay: ITC; antibody (about 30 uM) titrated into lysozyme (about 2 uM), 25 injections of 10 ul; PBS (20 mM, pH 7.4), 143 mM NaCl; 293 K (20 °C); remark: listed apart in the source

T1 sequence (P00698 19-147): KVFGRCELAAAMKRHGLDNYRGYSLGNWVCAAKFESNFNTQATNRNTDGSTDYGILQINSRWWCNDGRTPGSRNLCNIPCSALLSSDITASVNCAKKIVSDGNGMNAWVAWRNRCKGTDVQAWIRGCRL

B1: HyHEL-10 Fv fragment, H:R71A mutant (antibody, V domains shown)
VH: DVQLQESGPSLVKPSQTLSLTCSVTGDSITSDYWSWIRKFPGNRLEYMGYVSYSGSTYYNPSLKSRISITADTSKNQYYLDLNSVTTEDTATYYCANWDGDYWGQGTLVTVSA
VL: DIVLTQSPATLSVTPGNSVSLSCRASQSIGNNLHWYQQKSHESPRLLIKYASQSISGIPSRFSGSGSGTDFTLSINSVETEDFGMYFCQQSNSWPYTFGGGTKLEIK
notes: as the VH of m1, with R71A; as the VL of m1; Fv fragment; the text throughout has H:R71A
Lysozyme [1]
  dH: -23.78 ± 0.0598 kcal/mol
Lysozyme [2]
  dH: -27.1 ± 0.086 kcal/mol
Lysozyme [3]
  dH: -31.1 ± 0.347 kcal/mol

B2: HyHEL-10 Fv fragment, L:R45A mutant (antibody, V domains shown)
VH: DVQLQESGPSLVKPSQTLSLTCSVTGDSITSDYWSWIRKFPGNRLEYMGYVSYSGSTYYNPSLKSRISITRDTSKNQYYLDLNSVTTEDTATYYCANWDGDYWGQGTLVTVSA
VL: DIVLTQSPATLSVTPGNSVSLSCRASQSIGNNLHWYQQKSHESPALLIKYASQSISGIPSRFSGSGSGTDFTLSINSVETEDFGMYFCQQSNSWPYTFGGGTKLEIK
notes: as the VH of m1; as the VL of m1, with R45A; Fv fragment; the text throughout has L:R45A
Lysozyme [4]
  dH: -16.46 ± 0.0502 kcal/mol
Lysozyme [2]
  dH: -17.57 ± 0.0359 kcal/mol
Lysozyme [3]
  dH: -18.97 ± 0.055 kcal/mol
